B1: Inducible T-cell costimulator (Homo sapiens), Q9Y6W8 (parent)
chain: MKSGLWYFFLFCLRIKVLTGEINGSANYEMFIFHNGGVQILCKYPDIVQQFKMQLLKGGQILCDLTKTKGSGNTVSIKSLKFCHSQLSNNSVSFFLYNLDHSHANYYFCNLSIFDPPPFKVTLTGGYLHIYESQLCCQLKFWLPIGCAAFVVVCILGCILICWLTKKKYSSSVHDPNGEYMFMRAVNTAKKSRLTDVTL
partner: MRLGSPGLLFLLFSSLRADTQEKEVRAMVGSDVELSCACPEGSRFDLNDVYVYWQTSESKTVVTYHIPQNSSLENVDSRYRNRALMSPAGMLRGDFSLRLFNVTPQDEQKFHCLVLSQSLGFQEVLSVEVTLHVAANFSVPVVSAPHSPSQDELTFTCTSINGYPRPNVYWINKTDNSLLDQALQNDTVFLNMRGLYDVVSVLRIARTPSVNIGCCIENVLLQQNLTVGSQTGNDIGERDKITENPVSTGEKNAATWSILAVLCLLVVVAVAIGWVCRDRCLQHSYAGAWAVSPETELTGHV

Variants of: B1
Conditions: with icosl_human ICOSLG

Variant | effect of a mutation on the interaction
D64S | decreasing interaction strength
F51S | disrupting interaction strength
Q50S | decreasing interaction strength
K67S | disrupting interaction strength
Q49S | decreasing interaction strength
K69S | disrupting interaction strength
K52S | increasing interaction strength

Next, values leading:

effect of a mutation on the interaction | Variant
disrupting interaction strength | F119S
disrupting interaction strength | F114S
disrupting interaction strength | D115S
disrupting interaction strength | P117S
increasing interaction strength | S76E
